In patent US20250326861A1:
“And” between values parts separate entries of the source, which are not always exact repeats. Identical values can stand only once.

Legend:
Settings in all cases: remark: other sources report otherwise
[1] = target: T1, Human kallikrein (analyte in the Biacore assay) (human), P03952; experiment: SPR, Biacore T200, 25 C, HBS-EP+; antibody captured through Fc, human kallikrein as analyte; full length antibody
[2] = target: T1, Human kallikrein (analyte in the …); experiment: SPR, Biacore T200, 25 C, HBS-EP+; antibody captured on the chip through Fc, human kallikrein (activated, purified from human plasma) as analyte
[3] = target: T1, Human kallikrein (analyte in the …); experiment: as above; remark: listed apart in the source

T1 sequence (P03952 20-638 limits assumed): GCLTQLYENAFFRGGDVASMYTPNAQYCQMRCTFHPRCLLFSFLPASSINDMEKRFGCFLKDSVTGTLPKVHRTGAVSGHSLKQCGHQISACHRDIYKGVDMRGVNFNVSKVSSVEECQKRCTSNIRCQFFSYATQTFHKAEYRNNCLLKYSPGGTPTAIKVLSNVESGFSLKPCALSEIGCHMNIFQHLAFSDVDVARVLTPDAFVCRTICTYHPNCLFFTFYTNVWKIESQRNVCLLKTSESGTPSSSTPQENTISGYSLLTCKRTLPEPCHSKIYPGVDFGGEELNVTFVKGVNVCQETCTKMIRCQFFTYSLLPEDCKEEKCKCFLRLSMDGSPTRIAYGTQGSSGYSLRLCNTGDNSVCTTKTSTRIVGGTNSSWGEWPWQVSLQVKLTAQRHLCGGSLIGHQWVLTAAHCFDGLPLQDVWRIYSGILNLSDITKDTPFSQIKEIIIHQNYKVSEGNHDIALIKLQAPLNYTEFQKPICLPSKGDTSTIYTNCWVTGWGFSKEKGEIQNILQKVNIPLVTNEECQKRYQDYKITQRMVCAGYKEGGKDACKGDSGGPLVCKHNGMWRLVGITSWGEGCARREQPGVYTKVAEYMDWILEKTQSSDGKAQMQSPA

Kd [1]: 1.74 nM | koff [2]: 0.000347 s⁻¹ | kon [2]: 199000 M⁻¹ s⁻¹ | Kd [3]: 6.73 nM and 5.76 nM and 5.54 nM | koff [3]: 0.000315 s⁻¹ and 0.000297 s⁻¹ and 0.000291 s⁻¹ | kon [3]: 51500 M⁻¹ s⁻¹ and 52600 M⁻¹ s⁻¹ and 46700 M⁻¹ s⁻¹
B1: Lanadelumab (full length anti-pKal antibody) (antibody, IgG1, V domains shown)
VH: EVQLLESGGGLVQPGGSLRLSCAASGFTFSHYIMMWVRQAPGKGLEWVSGIYSSGGITVYADSVKGRFTISRDNSKNTLYLQMNSLRAEDTAVYYCAYRRIGVPRRDEFDIWGQGTMVTVSS
VL: DIQMTQSPSTLSASVGDRVTITCRASQSISSWLAWYQQKPGKAPKLLIYKASTLESGVPSRFSGSGSGTEFTLTISSLQPDDFATYYCQQYNTYWTFGQGTKVEIK
